Reference: patent US20050085442A1

Columns and labels:
[1] = biological target: bovine airway smooth muscle cell mannose receptor (bovine); experiment: cell-based or functional assay
[2] = biological target: human airway smooth muscle cell mannose receptor (huASMC-MR) (human) (UniProt Q9UBG0); experiment: flow cytometry (cell sorting) of bovine airway smooth muscle cells transfected with full-length huASMC-MR cDNA plasmid; vector control 57/1718 cells

b hexosaminidase-induced mitogenesis in bovine ASMC, inhibition by antisense huASMC-MR morpholino oligonucleotides (5 µM) [1] | percent of cells with increased fluorescence intensity [2] | Substance
37% |  | b hexosaminidase A (human placental β-hexosaminidase, Sigma) (from UniProt P06865 89-529; P07686 122-556) (enzyme)
 | 61% | FITC-ManBSA (FITC-labelled mannosylated bovine serum albumin) (from UniProt P02769 25-607)
